Laboratory results: patent US12527846B2, “Immunodominant proteins and fragments in multiple sclerosis” (UNIVERSITÄT ZÜRICH, priority 2018, dated 2026)

Experiments:
[1] = system: CD45RA-depleted PBMCs of natalizumab-treated MS patients; test: RASGRP2 reactivity of peripheral blood-derived memory T cells (thymidine incorporation); assay type: cell-based, human; settings: n=8 natalizumab-treated MS patients; peptide pools 10 μM or whole protein 0.3 μg/ml, day 7
Protocol: In order to test reactivity to RASGRP2 in peripheral blood-derived memory T cells, cryopreserved PBMCs (1×10^8 cells) of natalizumab-treated MS patients (NAT; n=8) were thawed and afterwards depleted for CD45RA-expressing cells using magnetic cell sorting (Miltenyi). 2×10^8 CD45RA-depleted PBMCs were seeded per well (10-15 replicate wells per condition) in X-Vivo medium and were either treated with vehicle (DMSO), with CD2/CD3/CD28 beads or pulsed with RASGRP2 peptide pools (final concentration of pool 10 μM) or whole purified RASGRP2 protein (Origene; 0.3 μg/ml). The 15mer-overlapping peptides covering the whole RASGRP2 protein (SEQ ID NO:s 38-98) were organized in 9 peptide pools with 7 peptides per pool covering the sequence of RASGRP2 from N- (pool 1) to C-terminus (pool 9). Thymidine incorporation assay was used to measure proliferation responses to RASGRP2. At day 7 the cells were pulsed with 1 μCi of methyl-3H-thymidine per well (Hartmann Analytic) and harvested after 15 h on a membrane (Tomtec). Incorporation was measured by p-scintillation counting (Wallac 1450, PerkinElmer). The results are shown as dots (mean±SEM). Stimulatory index (SI) was calculated as ratio of peptide or protein stimulation vs. vehicle control. SI values>2 were considered as positive (FIG. 10).

[2] = system: CSF-infiltrating CD4+ T cells; test: Recognition of GDP-L-fucose synthase peptides by PHA-expanded CSF-infiltrating CD4+ T cells from 31 CIS/MS patients; assay type: cell-based, human; settings: three-cluster k-means on patient scores
Protocol: In order to find out if specific recognition of GDP-L-fucose synthase occurs in CSF-infiltrating CD4+ T cells in patients with different forms of MS (the majority CIS and RRMS), a new protocol was developed to expand fresh CSF-infiltrating CD4+ T cells to high numbers in a single round to minimize variations in the original T cell repertoire. Resting PHA-expanded CSF-infiltrating CD4+ T cells, T cells that are also derived from the CNS compartment, from 31 CIS/MS patients were tested in quadruplicate with the 62 overlapping GDP-L-fucose synthase peptides presented by autologous irradiated PBMCs, as well as with the seven myelin peptides, CEF peptide pool and control beads. All stimulatory indices (Sls; except control beads) were pooled and SI values less than one were treated as having unit value. Cluster k-means analysis was performed to determine the optimal cut-off to differentiate responsive SI values from nonresponsive in this patient population. […] Subsequently, for each patient, all peptides having a median SI (of the quadruplicate wells) greater than 1.455 were identified as positive responses.
Next, patient scores were constructed by calculating the sum of each responsive peptide median SI, weighted by the number of total patients that responded to that peptide. […]
Proliferation was measured 72 h after stimulation by 3H-thymidine (Hartmann Analytic, Braunschweig, Germany) incorporation in a scintillation counter (Wallac 1450, PerkinElmer, Rodgau-Jurgesheim, Germany). The stimulatory index (SI) was calculated as follows: SI=Median (replicates cpm peptide)/Median (replicates cpm without peptide). Proliferation was also measured using a Click-iT™ EdU Flow Cytometry Assay Kit (APC, Molecular Probes, Invitrogen) following manufacturer's instructions. Cells were stained with the following antibodies anti-CD3 (PE-Cy-7, e-Bioscience, San Diego, CA) and anti-TRBV-21 (FITC, Beckman Coulter, Brea, CA) and analyzed by flow cytometry.

Row | Molecule | donors responding (SI values>2 positive) [1] | patients characterized as high responders [2] [%] | patients characterized as moderate responders [2] [%] | patients characterized as nonresponders [2] [%]
1 | RASGRP2: RASGRP2 peptide pools (15mer-overlapping peptides, SEQ ID NOs 38-98, 9 pools) or whole purified RASGRP2 protein (Origene) (protein, listed as Homo sapiens) AAAAARPAGGSARRWGRPGRCGLLAAGPKRVRSEPGGRLPERSLGPAHPAPAAMAGTLDLDKGCTVEELLRGCIEAFDDSGKVRDPQLVRMFLMMHPWYIPSSQLAAKLLHIYQQSRKDNSNSLQVKTCHLVRYWISAFPAEFDLNPELAEQIKELKALLDQEGNRRHSSLIDIDSVPTYKWKRQVTQRNPVGQKKRKMSLLFDHLEPMELAEHLTYLEYRSFCKILFQDYHSFVTHGCTVDNPVLERFISLFNSVSQWVQLMILSKPTAPQRALVITHFVHVAEKLLQLQNFNTLMAVVGGLSHSSISRLKETHSHVSPETIKLWEGLTELVTATGNYGNYRRRLAACVGFRFPILGVHLKDLVALQLALPDWLDPARTRLNGAKMKQLFSILEELAMVTSLRPPVQANPDLLSLLTVSLDQYQTEDELYQLSLQREPRSKSSPTSPTSCTPPPRPPVLEEWTSAAKPKLDQALVVEHIEKMVESVFRNFDVDGDGHISQEEFQIIRGNFPYLSAFGDLDQNQDGCISREEMVSYFLRSSSVLGGRMGFVHNFQESNSLRPVACRHCKALILGIYKQGLKCRACGVNCHKQCKDRLSVECRRRAQSVSLEGSAPSPSPMHSHHHRAFSFSLPRPGRRGSRPPEIREEEVQTVEDGVFDIHL | All 8 donors responded |  |  | 
2 | GDP L-fucose synthase (protein, listed as Homo sapiens, whole protein 1-321, GenBank AAH93061.1 or UniProtKB/Swiss-Prot Q13630) MGEPQGSMRILVTGGSGLVGKAIQKVVADGAGLPGEDWVFVSSKDADLTDTAQTRALFEKVQPTHVIHLAAMVGGLFRNIKYNLDFWRKNVHMNDNVLHSAFEVGARKVVSCLSTCIFPDKTTYPIDETMIHNGPPHNSNFGYSYAKRMIDVQNRAYFQQYGCTFTAVIPTNVFGPHDNFNIEDGHVLPGLIHKVHLAKSSGSALTVWGTGNPRRQFIYSLDLAQLFIWVLREYNEVEPIILSVGEEDEVSIKEAAEAVVEAMDFHGEVTFDTTKSDGQFKKTASNSKLRTYLPDFRFTPFKQAVKETCAWFTDNYEQARK |  | 19.35 | 19.35 | 61.3
